# Reference: US20190309059A1 (SHANGHAI PHARMAEXPLORER, published 2019)
# How the values were obtained:
# [1] = target: his-labeled human IL-13 (immunogen A) (human) (UniProt P35225); test: FACS blocking, biotin-IL-13 on IL-13Ra1/IL-4Ra HEK293 cells; antibody at 0.05 nM
# [2] = target: his-labeled human IL-13 (immunogen A) (human) (UniProt P35225); test: FACS blocking, biotin-IL-13 on IL-13Ra2 HEK293 cells; antibody at 1.33 nM
# [3] = target: his-labeled human IL-13 (immunogen A) (human) (UniProt P35225); test: FACS blocking, biotin-IL-13 on IL-13Ra2 HEK293 cells; antibody at 0.01 nM
# [4] = target: his-labeled human IL-13 (immunogen A) (human) (UniProt P35225); test: FACS blocking, biotin-IL-13 on IL-13Ra2 HEK293 cells; antibody at 6.67 nM
# [5] = target: his-labeled human IL-13 (immunogen A) (human) (UniProt P35225); test: FACS blocking, biotin-IL-13 on IL-13Ra1/IL-4Ra HEK293 cells; antibody at 166.67 nM
# [6] = target: his-labeled human IL-13 (immunogen A) (human) (UniProt P35225); test: FACS blocking, biotin-IL-13 on IL-13Ra1/IL-4Ra HEK293 cells; antibody at 1.33 nM
# [7] = target: his-labeled human IL-13 (immunogen A) (human) (UniProt P35225); test: FACS blocking, biotin-IL-13 on IL-13Ra1/IL-4Ra HEK293 cells; antibody at 0.01 nM
# [8] = target: his-labeled human IL-13 (immunogen A) (human) (UniProt P35225); test: SPR (Biacore)
# [9] = target: his-labeled human IL-13 (immunogen A) (human) (UniProt P35225); test: FACS blocking, biotin-IL-13 on IL-13Ra1/IL-4Ra HEK293 cells; antibody at 6.67 nM
# [10] = target: his-labeled human IL-13 (immunogen A) (human) (UniProt P35225); test: FACS blocking, biotin-IL-13 on IL-13Ra1/IL-4Ra HEK293 cells; antibody at 33.33 nM
# [11] = target: his-labeled human IL-13 (immunogen A) (human) (UniProt P35225); test: SPR (Biacore), antibody captured by anti-human Fc, immunogen A as analyte
# [12] = target: his-labeled human IL-13 (immunogen A) (human) (UniProt P35225); test: FACS blocking, biotin-IL-13 on IL-13Ra2 HEK293 cells; antibody at 0.27 nM
# [13] = target: his-labeled human IL-13 (immunogen A) (human) (UniProt P35225); test: FACS blocking, biotin-IL-13 on IL-13Ra2 HEK293 cells; antibody at 33.33 nM
# [14] = target: his-labeled human IL-13 (immunogen A) (human) (UniProt P35225); test: FACS blocking, biotin-IL-13 on IL-13Ra2 HEK293 cells; antibody at 0.002 nM
# [15] = target: his-labeled human IL-13 (immunogen A) (human) (UniProt P35225); test: FACS blocking, biotin-IL-13 on IL-13Ra1/IL-4Ra HEK293 cells; antibody at 0.27 nM
# [16] = target: his-labeled human IL-13 (immunogen A) (human) (UniProt P35225); test: cell-based or functional assay
# [17] = target: his-labeled human IL-13 (immunogen A) (human) (UniProt P35225); test: FACS blocking, biotin-IL-13 on IL-13Ra2 HEK293 cells; antibody at 166.67 nM
# [18] = target: his-labeled human IL-13 (immunogen A) (human) (UniProt P35225); test: FACS blocking, biotin-IL-13 on IL-13Ra2 HEK293 cells; antibody at 0.05 nM
# [19] = target: his-labeled human IL-13 (immunogen A) (human) (UniProt P35225); test: FACS blocking assay: antibody titrated with biotin-labeled immunogen A (20 ng/mL); blocked partner IL-13Ra2 on HEK293 clone 1A1; Alexa 488 streptavidin
# [20] = target: his-labeled human IL-13 (immunogen A) (human) (UniProt P35225); test: FACS blocking, biotin-IL-13 on IL-13Ra1/IL-4Ra HEK293 cells; antibody at 0.002 nM
# [21] = target: his-labeled human IL-13 (immunogen A) (human) (UniProt P35225); test: FACS blocking assay: antibody titrated with biotin-labeled immunogen A (30 ng/mL); blocked partner IL-13Ra1/IL-4Ra on HEK293 clone 4C1; Alexa 488 streptavidin
# [22] = target: his-labeled human IL-13R130Q variant (human) (UniProt P35225); test: ELISA, IL-13R130Q variant; antibody at 2.67 nM
# Sequence of his-labeled human IL-13R130Q variant (human) (P35225 other isoform, or with tags, fused parts or gaps mutant): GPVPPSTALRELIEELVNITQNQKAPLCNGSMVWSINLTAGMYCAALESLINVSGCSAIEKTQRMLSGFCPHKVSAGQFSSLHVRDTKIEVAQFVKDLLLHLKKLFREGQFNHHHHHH
# [23] = target: his-labeled human IL-13R130Q variant (human) (UniProt P35225); test: ELISA, IL-13R130Q variant; antibody at 66.67 nM
# [24] = target: his-labeled human IL-13R130Q variant (human) (UniProt P35225); test: ELISA, IL-13R130Q variant; antibody at 0.53 nM
# [25] = target: his-labeled human IL-13R130Q variant (human) (UniProt P35225); test: ELISA, IL-13R130Q variant; antibody at 0.021 nM
# [26] = target: his-labeled human IL-13R130Q variant (human) (UniProt P35225); test: ELISA, IL-13R130Q variant; antibody at 13.33 nM
# [27] = target: his-labeled human IL-13R130Q variant (human) (UniProt P35225); test: ELISA, IL-13R130Q variant; antibody at 0.004 nM
# [28] = target: his-labeled human IL-13R130Q variant (human) (UniProt P35225); test: ELISA, IL-13R130Q variant; antibody at 0.11 nM
binder,measurement,setting,value
"c70F10A10 (mouse-human chimeric IL-13 antibody) (antibody, V domains shown) VH: QIQLQQSGAELARPGASVKLSCKASGYTFTSYGISWVKQRDGQGLEWIGEIYPRSGNTDYNEKFKGKATLTADKSSSTAYMELRSLTSEDSAVYFCSSFTTLVPTDYFDYWGQGTTLTVSS VL: DIMMSQSPSSLAVSVGEKVSMTCKSSQSLLYSSNQKNYLAWYQQKPGQSPKMLIYWASTRETGVPDRFTGSGSGTDFTLTISSVMAEDLAVYYCHQYFTYPRTFGDGTKLEVK",mean fluorescence intensity,[1],96.9
same,mean fluorescence intensity,[2],49.1
same,mean fluorescence intensity,[3],97.6
same,mean fluorescence intensity,[4],31
same,mean fluorescence intensity,[5],20.8
same,mean fluorescence intensity,[6],53.3
same,mean fluorescence intensity,[7],98.3
same,Kd,[8],< 90 nM
same,mean fluorescence intensity,[9],27.3
same,mean fluorescence intensity,[10],22.6
same,Kd,[11],1.02 nM
same,koff,[11],0.000271 s⁻¹
same,kon,[11],267000 M⁻¹ s⁻¹
same,mean fluorescence intensity,[12],78.4
same,mean fluorescence intensity,[13],27.8
same,mean fluorescence intensity,[14],97.5
same,mean fluorescence intensity,[15],83.7
same,"Periostin (pg/mL), MRCS cells + IL-13 5 ng/mL; antibody at 0.0002 nM",[16],6960 pg/mL
same,"Periostin (pg/mL), MRCS cells + IL-13 5 ng/mL; antibody at 0.001 nM",[16],6050 pg/mL
same,"Periostin (pg/mL), MRCS cells + IL-13 5 ng/mL; antibody at 0.004 nM",[16],5010 pg/mL
same,"Periostin (pg/mL), MRCS cells + IL-13 5 ng/mL; antibody at 0.021 nM",[16],4540 pg/mL
same,"Periostin (pg/mL), MRCS cells + IL-13 5 ng/mL; antibody at 0.11 nM",[16],4570 pg/mL
same,"Periostin (pg/mL), MRCS cells + IL-13 5 ng/mL; antibody at 0.53 nM",[16],3660 pg/mL
same,"Periostin (pg/mL), MRCS cells + IL-13 5 ng/mL; antibody at 2.67 nM",[16],2620 pg/mL
same,"Periostin (pg/mL), MRCS cells + IL-13 5 ng/mL; antibody at 13.3 nM",[16],1260 pg/mL
same,"TARC (pg/mL), A549 cells + IL-13 + TNFα; antibody at 0.001 nM",[16],2610 pg/mL
same,"TARC (pg/mL), A549 cells + IL-13 + TNFα; antibody at 0.004 nM",[16],3030 pg/mL
same,"TARC (pg/mL), A549 cells + IL-13 + TNFα; antibody at 0.021 nM",[16],2770 pg/mL
same,"TARC (pg/mL), A549 cells + IL-13 + TNFα; antibody at 0.11 nM",[16],2780 pg/mL
same,"TARC (pg/mL), A549 cells + IL-13 + TNFα; antibody at 0.53 nM",[16],2800 pg/mL
same,"TARC (pg/mL), A549 cells + IL-13 + TNFα; antibody at 2.67 nM",[16],2240 pg/mL
same,"TARC (pg/mL), A549 cells + IL-13 + TNFα; antibody at 13.3 nM",[16],1120 pg/mL
same,"TARC (pg/mL), A549 cells + IL-13 + TNFα; antibody at 66.7 nM",[16],348 pg/mL
same,"VCAM-1 fluorescence intensity, HUVEC + IL-13 0.5 ng/mL + TNFα; antibody at 0.0002 nM",[16],368
same,"VCAM-1 fluorescence intensity, HUVEC + IL-13 0.5 ng/mL + TNFα; antibody at 0.001 nM",[16],343
same,"VCAM-1 fluorescence intensity, HUVEC + IL-13 0.5 ng/mL + TNFα; antibody at 0.004 nM",[16],374
same,"VCAM-1 fluorescence intensity, HUVEC + IL-13 0.5 ng/mL + TNFα; antibody at 0.021 nM",[16],403
same,"VCAM-1 fluorescence intensity, HUVEC + IL-13 0.5 ng/mL + TNFα; antibody at 0.11 nM",[16],316
same,"VCAM-1 fluorescence intensity, HUVEC + IL-13 0.5 ng/mL + TNFα; antibody at 0.53 nM",[16],286
same,"VCAM-1 fluorescence intensity, HUVEC + IL-13 0.5 ng/mL + TNFα; antibody at 2.67 nM",[16],272
same,"VCAM-1 fluorescence intensity, HUVEC + IL-13 0.5 ng/mL + TNFα; antibody at 13.3 nM",[16],223
same,mean fluorescence intensity,[17],24.6
same,mean fluorescence intensity,[18],94
same,IC50 (read off the curve),[19],0.7 nM
same,mean fluorescence intensity,[20],96
same,IC50 (read off the curve),[21],1 nM
"70F10A10 (lead antibody, mouse hybridoma) (antibody, V domains shown) VH: QIQLQQSGAELARPGASVKLSCKASGYTFTSYGISWVKQRDGQGLEWIGEIYPRSGNTDYNEKFKGKATLTADKSSSTAYMELRSLTSEDSAVYFCSSFTTLVPTDYFDYWGQGTTLTVSS VL: DIMMSQSPSSLAVSVGEKVSMTCKSSQSLLYSSNQKNYLAWYQQKPGQSPKMLIYWASTRETGVPDRFTGSGSGTDFTLTISSVMAEDLAVYYCHQYFTYPRTFGDGTKLEVK",mean fluorescence intensity,[1],67.6
same,mean fluorescence intensity,[2],46
same,mean fluorescence intensity,[3],75.6
same,mean fluorescence intensity,[4],42.3
same,mean fluorescence intensity,[5],19.3
same,mean fluorescence intensity,[6],30.7
same,mean fluorescence intensity,[7],73.5
same,mean fluorescence intensity,[9],24.7
same,mean fluorescence intensity,[10],20.3
same,mean fluorescence intensity,[12],46.8
same,mean fluorescence intensity,[13],39.1
same,mean fluorescence intensity,[14],76.7
same,mean fluorescence intensity,[15],51.9
same,"TARC (pg/mL), A549 cells + IL-13 5 ng/mL + TNFα; antibody at 0.001 nM",[16],2000 pg/mL
same,"TARC (pg/mL), A549 cells + IL-13 5 ng/mL + TNFα; antibody at 0.004 nM",[16],1830 pg/mL
same,"TARC (pg/mL), A549 cells + IL-13 5 ng/mL + TNFα; antibody at 0.021 nM",[16],1600 pg/mL
same,"TARC (pg/mL), A549 cells + IL-13 5 ng/mL + TNFα; antibody at 0.11 nM",[16],1630 pg/mL
same,"TARC (pg/mL), A549 cells + IL-13 5 ng/mL + TNFα; antibody at 0.5 nM",[16],1500 pg/mL
same,"TARC (pg/mL), A549 cells + IL-13 5 ng/mL + TNFα; antibody at 2.7 nM",[16],1140 pg/mL
same,"TARC (pg/mL), A549 cells + IL-13 5 ng/mL + TNFα; antibody at 13.3 nM",[16],656 pg/mL
same,"TARC (pg/mL), A549 cells + IL-13 5 ng/mL + TNFα; antibody at 66.7 nM",[16],207 pg/mL
same,mean fluorescence intensity,[17],37.8
same,mean fluorescence intensity,[18],70.8
same,IC50 (read off the curve),[19],0.1 nM
same,mean fluorescence intensity,[20],72.5
"c35H6E1 (mouse-human chimeric IL-13 antibody) (antibody, V domains shown) VH: QVTLKESGPGILQSSQTLSLTCSFSGFSLSTSNMGVSWIRQPSGKGLEWLAHIYWDDDKRYNPSLESRLTISKDTSRNQVFLKITSVDTADSATYYCARRTNYFSTRDYFDYWGQGTTLTVSS VL: DIQMTQSPASLSVSVGETVTITCRASENIYSNLVWYQQKQGKSPQLLVYAATKLADGVPSRFSGSGSGTQYSLKINSLQSEDFGSYYCQHFWGFPWTFGGGTKLEIK",OD450 nm,[22],2.97
same,OD450 nm,[23],3.31
same,OD450 nm,[24],2.13
same,Kd,[8],< 90 nM
same,Kd,[11],0.336 nM
same,koff,[11],0.000445 s⁻¹
same,kon,[11],1.33e+06 M⁻¹ s⁻¹
same,OD450 nm,[25],0.23
same,OD450 nm,[26],3.23
same,OD450 nm,[27],0.11
same,OD450 nm,[28],0.8
